Test results published in patent US20190010458.

Biological target: T1, HA-Etv2 (Mus musculus) (UniProt P41163)
T1 sequence: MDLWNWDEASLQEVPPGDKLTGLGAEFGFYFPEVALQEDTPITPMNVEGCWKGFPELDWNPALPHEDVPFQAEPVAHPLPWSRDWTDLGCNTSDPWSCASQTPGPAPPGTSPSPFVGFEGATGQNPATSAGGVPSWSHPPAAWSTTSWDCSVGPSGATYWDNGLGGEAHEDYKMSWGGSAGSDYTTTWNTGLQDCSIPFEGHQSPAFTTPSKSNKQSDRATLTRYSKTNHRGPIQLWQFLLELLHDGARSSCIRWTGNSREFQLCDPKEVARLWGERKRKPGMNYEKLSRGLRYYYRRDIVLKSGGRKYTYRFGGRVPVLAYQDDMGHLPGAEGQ
Settings: ChIP-qPCR with anti-HA, Dox-induced EBs

miR-130a upstream promoter region (ChIP amplicon)
binding signal (fold enrichment): 15
